Experimental data from article PMC4646180.

Each substance was assayed against Ub-AMC (ubiquitin with 7-amino-4-methylcoumarin at its C terminus) (UniProt P0CG48).

Row | Substance | Relative activity of WT, 500 nM Ub-AMC [%]
1 | MHV PLP2+ D1772R (from UniProt P0C6V0 1525-1911) (enzyme) | 1.1
2 | MHV PLP2+ D1807R (from UniProt P0C6V0 1525-1911) (enzyme) | 0.5
3 | MHV PLP2+ F1812A (from UniProt P0C6V0 1525-1911) (enzyme) | 3.3
4 | MHV PLP2+ Y1824A (from UniProt P0C6V0 1525-1911) (enzyme) | 3
5 | MHV PLP2+ Y1824F (from UniProt P0C6V0 1525-1911) (enzyme) | 70.3
